Laboratory results published in patent US20240294670A1 (University of Texas, published 2024).

How the values were obtained:
Q3T9S7_MOUSE = molecular target: T1, Q3T9S7_MOUSE (mouse, UniProt Q3T9S7 22-1179); assay: anti-His co-IP of rCHI3L1 from Kupffer cell lysate, MS; listed under 'proteins bound to CHI3L1'
T1 construct: also called tr|Q3T9S7|Q3T9S7_MOUSE
T1 sequence: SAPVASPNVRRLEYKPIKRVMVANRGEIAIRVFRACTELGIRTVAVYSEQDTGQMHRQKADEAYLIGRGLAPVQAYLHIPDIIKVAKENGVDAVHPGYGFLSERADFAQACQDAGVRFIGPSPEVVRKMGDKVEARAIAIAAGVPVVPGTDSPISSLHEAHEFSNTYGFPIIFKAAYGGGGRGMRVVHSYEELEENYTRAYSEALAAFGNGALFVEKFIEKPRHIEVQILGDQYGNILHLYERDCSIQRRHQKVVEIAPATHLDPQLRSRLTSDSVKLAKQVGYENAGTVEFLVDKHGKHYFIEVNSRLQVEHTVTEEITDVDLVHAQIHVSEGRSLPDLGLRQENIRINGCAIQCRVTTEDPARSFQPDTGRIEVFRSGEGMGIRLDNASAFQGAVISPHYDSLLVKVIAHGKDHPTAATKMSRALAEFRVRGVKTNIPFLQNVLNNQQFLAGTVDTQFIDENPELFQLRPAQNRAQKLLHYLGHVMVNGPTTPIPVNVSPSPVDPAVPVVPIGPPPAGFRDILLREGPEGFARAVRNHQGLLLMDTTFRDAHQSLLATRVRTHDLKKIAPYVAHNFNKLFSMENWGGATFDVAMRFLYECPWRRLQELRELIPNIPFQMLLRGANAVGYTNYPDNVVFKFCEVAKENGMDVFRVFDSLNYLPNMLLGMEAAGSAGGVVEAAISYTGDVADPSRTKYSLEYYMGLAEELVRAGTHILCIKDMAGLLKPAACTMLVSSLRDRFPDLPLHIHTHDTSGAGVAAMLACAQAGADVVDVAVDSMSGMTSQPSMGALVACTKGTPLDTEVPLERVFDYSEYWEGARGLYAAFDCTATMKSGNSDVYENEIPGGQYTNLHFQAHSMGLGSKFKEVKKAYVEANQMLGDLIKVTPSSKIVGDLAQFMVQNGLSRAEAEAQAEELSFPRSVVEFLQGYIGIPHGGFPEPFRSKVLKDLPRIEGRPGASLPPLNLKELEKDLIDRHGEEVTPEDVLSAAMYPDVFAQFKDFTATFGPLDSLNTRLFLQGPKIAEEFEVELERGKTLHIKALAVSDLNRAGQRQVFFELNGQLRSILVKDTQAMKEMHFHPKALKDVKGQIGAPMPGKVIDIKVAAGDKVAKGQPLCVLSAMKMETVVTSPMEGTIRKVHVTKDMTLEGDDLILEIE
Procedure: (§1) CHI3L1 interacts with CD44 on KCs. To further understand how CHI3L1 mediates the function of KCs to recruit platelets, the inventors set out to identify its receptor on KCs. They isolated KCs from WT mice treated with APAP for 3 h and incubated the cells with His-tagged rCHI3L1. The cell lysate was subjected to immunoprecipitation using an anti-His antibody. The “pulled down” fraction was subjected to LC/MS analyses. A partial list of proteins identified, including CHI3L1 itself, is shown in (Extended Data Table 1). Because CD44 is a cell membrane protein, the inventors decided to investigate it is a receptor for CHI3L1. They performed/immunoprecipitation experiments using liver homogenates obtained from WT and CD44^{-/-} mice after APAP treatment. […] Moreover, the inventors incubated rhCHI3L1 with human CD44 and then immunoprecipitated with an anti-CD44 antibody. The data confirmed a direct binding between CHI3L1 and CD44 (FIG. 3C). Consistent with the notion that many cell types express CD44, they detected CD44 express on various hepatic non-parenchymal cells (NPCs) except B cells and DCs (summarized in Extended Data Table 2). However, when they incubated liver NPCs with His-tagged rCHI3L1, the inventors observed that the only CD44-expressing cells that could bind to CHI3L1 were KCs (FIG. 3D).

Q3TF14_MOUSE = molecular target: T2, Q3TF14_MOUSE (mouse, UniProt Q3TF14 2-432); assay: as above
T2 construct: also called tr|Q3TF14|Q3TF14_MOUSE
T2 sequence: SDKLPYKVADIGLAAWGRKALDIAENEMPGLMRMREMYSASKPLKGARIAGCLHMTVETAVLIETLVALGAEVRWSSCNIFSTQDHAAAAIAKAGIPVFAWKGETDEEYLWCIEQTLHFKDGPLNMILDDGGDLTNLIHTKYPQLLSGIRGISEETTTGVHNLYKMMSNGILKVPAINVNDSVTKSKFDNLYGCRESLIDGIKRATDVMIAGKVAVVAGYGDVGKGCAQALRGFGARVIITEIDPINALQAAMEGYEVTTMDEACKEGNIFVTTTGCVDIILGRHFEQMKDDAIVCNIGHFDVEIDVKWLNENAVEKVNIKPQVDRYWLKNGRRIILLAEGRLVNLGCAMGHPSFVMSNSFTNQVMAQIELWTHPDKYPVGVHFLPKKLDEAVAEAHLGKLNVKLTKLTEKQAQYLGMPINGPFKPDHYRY
Procedure: as §1

binding result (Q3T9S7_MOUSE): binds | binding result (Q3TF14_MOUSE): binds
B1: recombinant mouse CHI3L1 (ligand)
chain: not shown
notes: His-tagged; also called mCHI3L1; mChi3l1
